Test system: MS2 coat protein
Assay: apparent KD of MS2 coat protein; designed switch direction (-1 OFF switch, 1 ON switch): -1; higher = weaker reporter binding
Outline: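 An oligonucleotide input, 200 uM small-molecule ligand, or no input was present during titration of SNAP-549-labelled MS2 coat protein, which was doubled from 0.7 or 1.5 nM to 3 µM. Designed RNA switches had been transcribed on Illumina chips by stalled E. coli RNA polymerase. Apparent KD per design is the median over clusters of curves fitted to normalised cluster fluorescence.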

[1] = input ligand: microRNA oligo, concentration not stated
[2] = Eterna round: R95, input ligand: FMN 200 uM
[3] = Eterna round: R95, input ligand: microRNA oligo, concentration not stated
[4] = Eterna round: R95, input ligand: none

Sequence	apparent KD of MS2 coat protein (input ligand: FMN 200 uM) [nM]	apparent KD of MS2 coat protein (input ligand: none) [nM]	apparent KD of MS2 coat protein [3] [nM]	further results
GGUCCGCAUGUCAGGAUAUACAUAUGGAUCAUAGAGUAGAAGGGACUUGAGGAUCACCCAAGUAACAAAAGAAG [Tiantere] (Eterna round: R97, puzzle: Brourd's mod of Exclusion 4)	60.1	21.3		
UAUUAGCAAGCGAGAUCCCACAUGAGGAUCACCCAUGUGCUCGUCUUAUAAGGUACUGUGACGAAAGUCACGGUACC [Sensor 3, v1 - 91] (Eterna round: R96, puzzle: Sensor v3, turn-off variant 1)	11.5	15.5		apparent KD of MS2 coat protein [1]: 298 nM
GGCCGUAAUAAGGAUAUCACUAGCUGCGGCUAGUGAGAAGGUAUUACAUGAGGAUCACCCAUGUGGUCAGGCCA [E6/4-B3] (Eterna round: R97, puzzle: Exclusion 6)	1060	284		
ACCAUGUCAGGAUAUGCCCGUGUUCGAUCCGAGAAACACGAGCAGAAGGGACAUGAGGAUCACCCAUGUCCAAG [Eternabot (Original) Solution 1] (Eterna round: R97, puzzle: Exclusion 4)	45.2	16.2		
UAAUAGUAUGUUAGGAUAUGCUGGUCGAAAGAUCAGCAGAAGGAACAUGAGGAUCACCCAUGUAGACUAUUUUA [Mod of JL 20 - Jieux - Brourd's mod of Exclusion 4] (Eterna round: R97, puzzle: Brourd's mod of Exclusion 4)	31.6	17.8		
GACAGCAUGCAGGAUAUACCUCCUCUGCGGACGGUAGAAGGGCGUACAUGAGGAUCACCCAUGUCACCCAUUUC [Eternabot (L2) Solution 61] (Eterna round: R97, puzzle: Exclusion 6)	13.9	14.4		
CUAGAUCUUCGGAUCUAGUACAUGAGGAUCACCCAUGUUACGAGUUGAUUUUCAUACAAGCUUUUUGCUCGUCUUAU [Sensor v3 - Turn-off variant 1 - 28] (puzzle: Sensor v3, turn-off variant 1)			84.4	apparent KD of MS2 coat protein [2]: 134 nM; apparent KD of MS2 coat protein [4]: 153 nM
CCCUCACAUGAGGAUCACCCAUGUCAGGAUAUUCGAGGCGCAAAUGCGCCAAAUGCAGGAAGAAGGGACGUGCC [Isqubemaor] (puzzle: Exclusion 1)			14	
ACAUCGCCAGAAGUAGGUGACAUGAGGAUCACCCAUGUAGGCUAUUUUGCUCGUUUUAUUUCCACCCUAUUUGCUCC [Eternabot (L1) Solution 13] (Eterna round: R97, puzzle: Sensor, turn-off variant 1)	146	190		
CUUUUGUGAGGAUAUCAGUAGUAAAUAAAUAAAAUUAAUACUGAGAAGGCACAUGAGGAUCACCCAUGUUCCUC [Mat - Exclusion 4 - Mod of Salish - D63] (puzzle: Exclusion 4)			33	
CCGGAAAUGGAGGAUAUAGGAGUCGAUAGACACCUAGAAGGUCAUACAUGAGGAUCACCCAUGUGUCCUACCGG [Fiskers Ex 6 - 79] (puzzle: Exclusion 6)			12.9	
GGCACCGUAGGAUAUUGUGGUGCAGACAUGAGGAUCACCCAUGUUGAUCCGGGACUGCAGCGAGAAGGACGGGAAA [Eternabot (Original) Solution 2] (Eterna round: R97, puzzle: Exclusion 5)	284	344		
CCAUCGUGUGUGAGGAUAUGCUGGUCCUUGGAUCAGCAGAAGGCACAUGAGGAUCACCCAUGUGAAGACGGUGG [JL bmx4 3.22] (puzzle: Brourd's mod of Exclusion 4)			17.4	apparent KD of MS2 coat protein [2]: 48.7 nM; apparent KD of MS2 coat protein [4]: 24.2 nM
AAACAGCAAGGAUAUACGGGCUGUGCUUUUCAUAUCAUACAACAUGAGGAUCACCCAUGUAGAAGGUGCAACAA [Ex2 #3] (Eterna round: R97, puzzle: Exclusion 2)	146	44		
GGAAAGUGAGGAUAUGGUAAUUUAAUUAUUAAUUAAUUAAUCCAGAAGGCACAUGAGGAUCACCCAUGUAAAGG [Mat - Exclusion 4 - D92] (puzzle: Exclusion 4)			30.7	
UACAUGAGGAUCACCCAUGUUUUGUCGUGUAUGGUAUUUAUCUAGGAUAUCAAUGUAUUUAUUCAUGAGAAGGAGAAUAUUAAU [JMF's solution 48] (Eterna round: R96, puzzle: Exclusion NG 3)	32.4	33.7		apparent KD of MS2 coat protein [1]: 28.3 nM
UAGCUUCCGGUCAGGAUAUACGCUGGCGAAUAGCAGUAGAAGGGACAUGAGGAUCACCCAUGUGGGUUCAAAGA [Zabetima] (puzzle: Brourd's mod of Exclusion 4)			39.4	apparent KD of MS2 coat protein [2]: 91 nM; apparent KD of MS2 coat protein [4]: 44.2 nM

Sequence	apparent KD of MS2 coat protein (input ligand: FMN 200 uM) [nM]	apparent KD of MS2 coat protein (input ligand: none) [nM]	apparent KD of MS2 coat protein [3] [nM]	further results
GAAAAGGUAGGAUAUACGAUAAAAAAGGGUAGAAAAAAAACACAUGAGGAUCACCCAUGUAGAAGGACCAAAAG [salish99_ex2_r3_086] (puzzle: Exclusion 2)			20.7	apparent KD of MS2 coat protein [2]: 95.2 nM; apparent KD of MS2 coat protein [4]: 30 nM
AAGGGCUGAGGAUAUGCGCGGGCAAGAUCCUCAAUCCCAAAACAUGAGGAUCACCCAUGUAGAAGGCAGAAAUA [Atedonesle] (puzzle: Exclusion 2)			28.3	
ACAUGUAAUGCAGGAUAUGGGACACAUGAGGAUCACCCAUGUGACCAGAGGUAAUGCUAAGAGUCUCAGAAGGGUAUGUACAUG [Ex NG2 #49] (Eterna round: R96, puzzle: Exclusion NG 2)	22.5	19		apparent KD of MS2 coat protein [1]: 14.5 nM
AUUAUAUAGACAGGAUAUUGAUUAUUAUUUUAACAUGAGGAUCACCCAUGUAACCUUAUGUAUAGCAAGAAGGGUCAUUUAUUA [Title] (Eterna round: R96, puzzle: Exclusion NG 2)	107	75.6		apparent KD of MS2 coat protein [1]: 72.9 nM
UCUUACUGAGGAUAUACUUAGAUUUACAUGAGGAUCACCCAUGUUCCUCUAUGUAUAUAUGUAGAAGGCAGAAGAU [Mat - Exclusion 5 - JL Mod - D47] (Eterna round: R97, puzzle: Exclusion 5)	292	35.6		
UGUAGAGUGGUAGGAUAUCCGGCUGUUUCAGUCGGAGAAGGACCACAGUCACUGGGUCCUUAUAUGGGUGACCAUGUAUCUACU [pwkr exNG1 F6.7] (Eterna round: R96, puzzle: Exclusion NG 1)	558	395		apparent KD of MS2 coat protein [1]: 305 nM
UGAGAGUGAGGAUAUACGUCGCUGGUCCAGAUGGACGCAUGACAUGAGGAUCACCCAUGUAGAAGGCAUUUCCC [Enxela Mod 8 - Jieux - Exclusion 2] (Eterna round: R97, puzzle: Exclusion 2)	61.9	28.4		
UAUGUCUCAGGAGGAUAUCUCCCGGUUGCCGUUAGAGAAGGCUUGAAACAUGAGGAUCACCCAUGUAAAUGGCCCGUCCUCCAA [Atsodibian] (Eterna round: R96, puzzle: Exclusion NG 1)	15.4	14.7		apparent KD of MS2 coat protein [1]: 9.77 nM
UUAGAAAGGUUAGGAUAUUAAUUAUUGUAUAGUAUGAUCUACAUGAGGAUCACCCAUGUUAAAUAUAAGAAGGAACGUUAGAUU [JR_ExcNG2_Sub093] (Eterna round: R96, puzzle: Exclusion NG 2)				apparent KD of MS2 coat protein [1]: 39.9 nM
AAGUGCAAAGGAUAUACGUGACUUACUCCAAUUGCUACCCGACAUGAGGAUCACCCAUGUAGAAGGUUGCGCAC [Eternabot (Original) Solution 20] (Eterna round: R97, puzzle: Exclusion 2)	34.3	16.6		
CCGAUAAUGUAGGAUAUCGUAUCGGAGACGAUACGAGAAGGACAAACAUGAGGAUCACCCAUGUUCCUUAACGG [Mat - Exclusion 6 - Eli Mod - D74] (puzzle: Exclusion 6)			13.5	
GGAUCGAGUGUGAGGAUAUGCUGGUCCUUGGAUCAGCAGAAGGCACAUGAGGAUCACCCAUGUGAAGACGAUCC [Mat - Exclusion 4 - JL Mod - D73] (Eterna round: R96, puzzle: Brourd's mod of Exclusion 4)	230	28.7		apparent KD of MS2 coat protein [1]: 23.1 nM
UUUUACAUAGGAUAUAGUUUGUUGUACAUGAGGAUCACCCAUGUUUUUGUUUGUGCUUUUCUAGAAGGAUGUUUCU [JR_E5_Sub016] (puzzle: Exclusion 5)			28.9	
UAUGGUUAAGUCAGGAUAUGCUCAUAGAAGUCUGUGCAGAAGGGACAUGAGGAUCACCCAUGUAUGGUAGUGUU [Ex4 #61] (Eterna round: R97, puzzle: Brourd's mod of Exclusion 4)	293	460		
UUGAAUUAACAGGAUAUGGGAGUCGAUAGACACCCAGAAGGGUUAACAUGAGGAUCACCCAUGUGUCCUAUCAA [Mod of Eli 23 - Jieux - Exclusion 6] (Eterna round: R97, puzzle: Exclusion 6)	94.8	36.5		
AGUCGGUCAGGAUAUGCAAUCGUGGACAUGAGGAUCACCCAUGUAACGUGGGCCUGGUUUGUAGAAGGGACGUGCA [EX5 #88] (Eterna round: R97, puzzle: Exclusion 5)	63.2	55.2		
AGCCAAGCAGGAUAUGCACGUAAUAACAUGAGGAUCACCCAUGUGACCGAUUUAUAUUCUGCAGAAGGGCUUGGAA [LRO-Excl5-14-mod of Erxesoan mod by Eli Fisker] (Eterna round: R97, puzzle: Exclusion 5)	143	29.7		

— the supplement of paper PMC9170038
